B1: Pistol ribozyme (parent)
chain: GGGUCGUUGUUCCAUAAUCGCGUGGAUAUGGCACGCAAGUUUCUACCGGGCACCGUAAAUGUCCGACUGGAGCCGUUCGGGCGGCUAUAAACAGACCUCAGGCCCGAAGCGUGGCGGCACCUGCCGCCGGUGGUAAAAAAGAUCGGAAGAGCACACGUCU

Variants of: B1
Test: aptazyme ON/OFF ratio, guanine; higher = stronger switching; co-transcriptional cleavage with and without guanine

Variant	aptazyme ON/OFF ratio
GGGUCGGUGUCCGAUAAUCGCGUGGAUAUGGCACGCAAGUUUCUACCGGGCACCGUAAAUGUCCGACUGGAGCCGUUCGGGCGGCUAUAAACAGACCUCAGGCCCGAAGCGUGGCGGCACCUGCCGCCGGUGGUAAAAAAGAUCGGAAGAGCACACGUCU [U7G U11C C13G]	1.08
GGGUCGGUGUCCAAUAAUCGCGUGGAUAUGGCACGCAAGUUUCUACCGGGCACCGUAAAUGUCCGACUGGAGCCGUUCGGGCGGCUAUAAACAGACCUCAGGCCCGAAGCGUGGCGGCACCUGCCGCCGGUGGUAAAAAAGAUCGGAAGAGCACACGUCU [U7G U11C C13A]	1.03
GGGUCGGUGUCCUAUAAUCGCGUGGAUAUGGCACGCAAGUUUCUACCGGGCACCGUAAAUGUCCGACUGGAGCCGUUCGGGCGGCUAUAAACAGACCUCAGGCCCGAAGCGUGGCGGCACCUGCCGCCGGUGGUAAAAAAGAUCGGAAGAGCACACGUCU [U7G U11C C13U]	1.07
GGGUCGGUGUGAAAUAAUCGCGUGGAUAUGGCACGCAAGUUUCUACCGGGCACCGUAAAUGUCCGACUGGAGCCGUUCGGGCGGCUAUAAACAGACCUCAGGCCCGAAGCGUGGCGGCACCUGCCGCCGGUGGUAAAAAAGAUCGGAAGAGCACACGUCU [U7G U11G C12A C13A]	1.13
GGGUCGGUGUGAGAUAAUCGCGUGGAUAUGGCACGCAAGUUUCUACCGGGCACCGUAAAUGUCCGACUGGAGCCGUUCGGGCGGCUAUAAACAGACCUCAGGCCCGAAGCGUGGCGGCACCUGCCGCCGGUGGUAAAAAAGAUCGGAAGAGCACACGUCU [U7G U11G C12A C13G]	1.11
GGGUCGGUGUGAUAUAAUCGCGUGGAUAUGGCACGCAAGUUUCUACCGGGCACCGUAAAUGUCCGACUGGAGCCGUUCGGGCGGCUAUAAACAGACCUCAGGCCCGAAGCGUGGCGGCACCUGCCGCCGGUGGUAAAAAAGAUCGGAAGAGCACACGUCU [U7G U11G C12A C13U]	1.14
GGGUCGUAGUUUGAUAAUCGCGUGGAUAUGGCACGCAAGUUUCUACCGGGCACCGUAAAUGUCCGACUGGAGCCGUUCGGGCGGCUAUAAACAGACCUCAGGCCCGAAGCGUGGCGGCACCUGCCGCCGGUGGUAAAAAAGAUCGGAAGAGCACACGUCU [U8A C12U C13G]	1.35
GGGUCGUAGUUUAAUAAUCGCGUGGAUAUGGCACGCAAGUUUCUACCGGGCACCGUAAAUGUCCGACUGGAGCCGUUCGGGCGGCUAUAAACAGACCUCAGGCCCGAAGCGUGGCGGCACCUGCCGCCGGUGGUAAAAAAGAUCGGAAGAGCACACGUCU [U8A C12U C13A]	1.28
GGGUCGUAGUUUUAUAAUCGCGUGGAUAUGGCACGCAAGUUUCUACCGGGCACCGUAAAUGUCCGACUGGAGCCGUUCGGGCGGCUAUAAACAGACCUCAGGCCCGAAGCGUGGCGGCACCUGCCGCCGGUGGUAAAAAAGAUCGGAAGAGCACACGUCU [U8A C12U C13U]	1.38
GGGUCGGUGUGCCAUAAUCGCGUGGAUAUGGCACGCAAGUUUCUACCGGGCACCGUAAAUGUCCGACUGGAGCCGUUCGGGCGGCUAUAAACAGACCUCAGGCCCGAAGCGUGGCGGCACCUGCCGCCGGUGGUAAAAAAGAUCGGAAGAGCACACGUCU [U7G U11G]	1.32
GGGUCGUAAUUCCAUAAUCGCGUGGAUAUGGCACGCAAGUUUCUACCGGGCACCGUAAAUGUCCGACUGGAGCCGUUCGGGCGGCUAUAAACAGACCUCAGGCCCGAAGCGUGGCGGCACCUGCCGCCGGUGGUAAAAAAGAUCGGAAGAGCACACGUCU [U8A G9A]	1.91
GGGUCGGUGUGCUAUAAUCGCGUGGAUAUGGCACGCAAGUUUCUACCGGGCACCGUAAAUGUCCGACUGGAGCCGUUCGGGCGGCUAUAAACAGACCUCAGGCCCGAAGCGUGGCGGCACCUGCCGCCGGUGGUAAAAAAGAUCGGAAGAGCACACGUCU [U7G U11G C13U]	1.1
GGGUCGGUGUGCAAUAAUCGCGUGGAUAUGGCACGCAAGUUUCUACCGGGCACCGUAAAUGUCCGACUGGAGCCGUUCGGGCGGCUAUAAACAGACCUCAGGCCCGAAGCGUGGCGGCACCUGCCGCCGGUGGUAAAAAAGAUCGGAAGAGCACACGUCU [U7G U11G C13A]	1.06
GGGUCGGUGUGCGAUAAUCGCGUGGAUAUGGCACGCAAGUUUCUACCGGGCACCGUAAAUGUCCGACUGGAGCCGUUCGGGCGGCUAUAAACAGACCUCAGGCCCGAAGCGUGGCGGCACCUGCCGCCGGUGGUAAAAAAGAUCGGAAGAGCACACGUCU [U7G U11G C13G]	1.08
GGGUCGUAGUUCCAUAAUCGCGUGGAUAUGGCACGCAAGUUUCUACCGGGCACCGUAAAUGUCCGACUGGAGCCGUUCGGGCGGCUAUAAACAGACCUCAGGCCCGAAGCGUGGCGGCACCUGCCGCCGGUGGUAAAAAAGAUCGGAAGAGCACACGUCU [U8A]	2.82
GGGUCGUAGUUCGAUAAUCGCGUGGAUAUGGCACGCAAGUUUCUACCGGGCACCGUAAAUGUCCGACUGGAGCCGUUCGGGCGGCUAUAAACAGACCUCAGGCCCGAAGCGUGGCGGCACCUGCCGCCGGUGGUAAAAAAGAUCGGAAGAGCACACGUCU [U8A C13G]	1.11
GGGUCGUAGUUCUAUAAUCGCGUGGAUAUGGCACGCAAGUUUCUACCGGGCACCGUAAAUGUCCGACUGGAGCCGUUCGGGCGGCUAUAAACAGACCUCAGGCCCGAAGCGUGGCGGCACCUGCCGCCGGUGGUAAAAAAGAUCGGAAGAGCACACGUCU [U8A C13U]	1.43
GGGUCGUAGUUCAAUAAUCGCGUGGAUAUGGCACGCAAGUUUCUACCGGGCACCGUAAAUGUCCGACUGGAGCCGUUCGGGCGGCUAUAAACAGACCUCAGGCCCGAAGCGUGGCGGCACCUGCCGCCGGUGGUAAAAAAGAUCGGAAGAGCACACGUCU [U8A C13A]	1.24

Variant	aptazyme ON/OFF ratio
GGGUCGUAGUUGCAUAAUCGCGUGGAUAUGGCACGCAAGUUUCUACCGGGCACCGUAAAUGUCCGACUGGAGCCGUUCGGGCGGCUAUAAACAGACCUCAGGCCCGAAGCGUGGCGGCACCUGCCGCCGGUGGUAAAAAAGAUCGGAAGAGCACACGUCU [U8A C12G]	1.46
GGGUCGUAGUUACAUAAUCGCGUGGAUAUGGCACGCAAGUUUCUACCGGGCACCGUAAAUGUCCGACUGGAGCCGUUCGGGCGGCUAUAAACAGACCUCAGGCCCGAAGCGUGGCGGCACCUGCCGCCGGUGGUAAAAAAGAUCGGAAGAGCACACGUCU [U8A C12A]	1.3
GGGUCGUAGUUUCAUAAUCGCGUGGAUAUGGCACGCAAGUUUCUACCGGGCACCGUAAAUGUCCGACUGGAGCCGUUCGGGCGGCUAUAAACAGACCUCAGGCCCGAAGCGUGGCGGCACCUGCCGCCGGUGGUAAAAAAGAUCGGAAGAGCACACGUCU [U8A C12U]	1.62
GGGUCGGUGUGGGAUAAUCGCGUGGAUAUGGCACGCAAGUUUCUACCGGGCACCGUAAAUGUCCGACUGGAGCCGUUCGGGCGGCUAUAAACAGACCUCAGGCCCGAAGCGUGGCGGCACCUGCCGCCGGUGGUAAAAAAGAUCGGAAGAGCACACGUCU [U7G U11G C12G C13G]	1.14
GGGUCGGUGUGGUAUAAUCGCGUGGAUAUGGCACGCAAGUUUCUACCGGGCACCGUAAAUGUCCGACUGGAGCCGUUCGGGCGGCUAUAAACAGACCUCAGGCCCGAAGCGUGGCGGCACCUGCCGCCGGUGGUAAAAAAGAUCGGAAGAGCACACGUCU [U7G U11G C12G C13U]	1.04
GGGUCGGUGUGGAAUAAUCGCGUGGAUAUGGCACGCAAGUUUCUACCGGGCACCGUAAAUGUCCGACUGGAGCCGUUCGGGCGGCUAUAAACAGACCUCAGGCCCGAAGCGUGGCGGCACCUGCCGCCGGUGGUAAAAAAGAUCGGAAGAGCACACGUCU [U7G U11G C12G C13A]	1.09
GGGUCGUAGUUAAAUAAUCGCGUGGAUAUGGCACGCAAGUUUCUACCGGGCACCGUAAAUGUCCGACUGGAGCCGUUCGGGCGGCUAUAAACAGACCUCAGGCCCGAAGCGUGGCGGCACCUGCCGCCGGUGGUAAAAAAGAUCGGAAGAGCACACGUCU [U8A C12A C13A]	1.24
GGGUCGUAGUUAGAUAAUCGCGUGGAUAUGGCACGCAAGUUUCUACCGGGCACCGUAAAUGUCCGACUGGAGCCGUUCGGGCGGCUAUAAACAGACCUCAGGCCCGAAGCGUGGCGGCACCUGCCGCCGGUGGUAAAAAAGAUCGGAAGAGCACACGUCU [U8A C12A C13G]	1.13
GGGUCGUAGUUAUAUAAUCGCGUGGAUAUGGCACGCAAGUUUCUACCGGGCACCGUAAAUGUCCGACUGGAGCCGUUCGGGCGGCUAUAAACAGACCUCAGGCCCGAAGCGUGGCGGCACCUGCCGCCGGUGGUAAAAAAGAUCGGAAGAGCACACGUCU [U8A C12A C13U]	1.19
GGGUCGGUGUGUUAUAAUCGCGUGGAUAUGGCACGCAAGUUUCUACCGGGCACCGUAAAUGUCCGACUGGAGCCGUUCGGGCGGCUAUAAACAGACCUCAGGCCCGAAGCGUGGCGGCACCUGCCGCCGGUGGUAAAAAAGAUCGGAAGAGCACACGUCU [U7G U11G C12U C13U]	1.2
GGGUCGGUGUGUGAUAAUCGCGUGGAUAUGGCACGCAAGUUUCUACCGGGCACCGUAAAUGUCCGACUGGAGCCGUUCGGGCGGCUAUAAACAGACCUCAGGCCCGAAGCGUGGCGGCACCUGCCGCCGGUGGUAAAAAAGAUCGGAAGAGCACACGUCU [U7G U11G C12U C13G]	1.12
GGGUCGGUGUGUAAUAAUCGCGUGGAUAUGGCACGCAAGUUUCUACCGGGCACCGUAAAUGUCCGACUGGAGCCGUUCGGGCGGCUAUAAACAGACCUCAGGCCCGAAGCGUGGCGGCACCUGCCGCCGGUGGUAAAAAAGAUCGGAAGAGCACACGUCU [U7G U11G C12U C13A]	1.14
GGGUCGGUGUGGCAUAAUCGCGUGGAUAUGGCACGCAAGUUUCUACCGGGCACCGUAAAUGUCCGACUGGAGCCGUUCGGGCGGCUAUAAACAGACCUCAGGCCCGAAGCGUGGCGGCACCUGCCGCCGGUGGUAAAAAAGAUCGGAAGAGCACACGUCU [U7G U11G C12G]	1.23
GGGUCGGUGUGUCAUAAUCGCGUGGAUAUGGCACGCAAGUUUCUACCGGGCACCGUAAAUGUCCGACUGGAGCCGUUCGGGCGGCUAUAAACAGACCUCAGGCCCGAAGCGUGGCGGCACCUGCCGCCGGUGGUAAAAAAGAUCGGAAGAGCACACGUCU [U7G U11G C12U]	1.2
GGGUCGGUGUGACAUAAUCGCGUGGAUAUGGCACGCAAGUUUCUACCGGGCACCGUAAAUGUCCGACUGGAGCCGUUCGGGCGGCUAUAAACAGACCUCAGGCCCGAAGCGUGGCGGCACCUGCCGCCGGUGGUAAAAAAGAUCGGAAGAGCACACGUCU [U7G U11G C12A]	1.11
GGGUCGUAGUUGUAUAAUCGCGUGGAUAUGGCACGCAAGUUUCUACCGGGCACCGUAAAUGUCCGACUGGAGCCGUUCGGGCGGCUAUAAACAGACCUCAGGCCCGAAGCGUGGCGGCACCUGCCGCCGGUGGUAAAAAAGAUCGGAAGAGCACACGUCU [U8A C12G C13U]	1.24
GGGUCGUAGUUGAAUAAUCGCGUGGAUAUGGCACGCAAGUUUCUACCGGGCACCGUAAAUGUCCGACUGGAGCCGUUCGGGCGGCUAUAAACAGACCUCAGGCCCGAAGCGUGGCGGCACCUGCCGCCGGUGGUAAAAAAGAUCGGAAGAGCACACGUCU [U8A C12G C13A]	1.48
GGGUCGUAGUUGGAUAAUCGCGUGGAUAUGGCACGCAAGUUUCUACCGGGCACCGUAAAUGUCCGACUGGAGCCGUUCGGGCGGCUAUAAACAGACCUCAGGCCCGAAGCGUGGCGGCACCUGCCGCCGGUGGUAAAAAAGAUCGGAAGAGCACACGUCU [U8A C12G C13G]	1.18

— the RNAGym collection of RNA variant scans (doi:10.1021/acssynbio.7b00057)
